In the nanobody polyreactivity screen of Harvey et al. (2022):

Assay: yeast display, Sf9 membrane polyspecificity reagent, FACS + sequencing; frameworks hold sequencing errors
Procedure, shortened: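 Nanobodies came from a synthetic yeast display library in Saccharomyces cerevisiae BJ5465, induced with galactose for 36–48 hours and stained for 1 hour at 4 °C with 10% biotinylated, detergent-solubilized Sf9 membrane reagent. Cells were enriched on streptavidin microbeads and then FACS-sorted, with low and high (top ~1%) gates set on anti-HA fluorescence for expression and streptavidin fluorescence for reagent binding. Each polyreactivity label reflects the gate a clone came from. Genes were amplified by colony PCR, sequenced by MiSeq 2 × 250 and filtered by CDR length.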

Row | Sequence | polyreactivity (PSR sort gate)
1 | QVQLVESGGGLVQAGGSLRLSCAASGRTFYGYAMGWYRQAPGKERELVASISRDGYTNYADSVKGRFTISRDNANNTVYLQMTSLKPEDTAVYYCAADFWYYRYPIYYYSYDYWGQGTQVTVSS | low polyreactivity
2 | QVQLVESGGGLVQAGGSLRLSFDASGFISGDNTMGWYRQAPGKERELVAAINSGGSTYYADSVKGRFTISRDNAKNTFYLQMNSLKPEDTAVYYCAADYSTWLRAYDFWGQGTQVTVSS | low polyreactivity
3 | QVQLVESGGGLDQAGGSLRLSCAASGSIFDDYAMGWYRQAPGKERELVAAISWSGGRTYYADSVKGRFTISRDNAKNTVYLQMNSLKPEDTAVYYCAATTGVRSRRYYYWGQGTQVTVSS | low polyreactivity
4 | QVQLVESGGGLVQAGGSLRLSCASSGSIFARYALGWYIQAPGKQRELVADINSTVSTNYADSVKGRFTISRDNAKNPVYLQMNSLKPEVTAVSYCAVDIVRGGRDSWGQGTQVTVSS | low polyreactivity
5 | QDQLVESGGGLVQAGGSLRLSCAASGSTFPKYAMGWYRQAPGKERELVASISVTTGSTYYADSVKGRFTISRDNAKNTVYLQMNSLKPEDTAVYYCPKRTYSRKFRGAYNYWGQGTQVTVSS | high polyreactivity
6 | QVQLVESAGGLVQAGGSLRLSCAASGRIFYGNAMGWYRQAPGKERELVAAISKRGGSTHYAASVKGRFTISRDNAKNTVYLQMNSLKPEDTAVYYCATDSYYVGAVHYYYWGQGTQVTVSS | high polyreactivity
7 | QVQLVESGGGLVQAGGSLRLSCAPSGRIFYGYAMGWYRQAPGKERELVAAITSGSRTNYADSVKGRFTISRDNAKNTVYLQMNSLKPEDTAVYYCHSLYGSYLYSLVHTSRYDYWGQGSQVTVSS | low polyreactivity
8 | QVQLVETGGGLVQAGGSLRLSCAASGSTFGYYAMGWYRQAPGKERELVAAITSGGSTYYADSVKGRFTISRDNAKNSVFLQMNSLKPEDTAVYYCAATWYGFAYDYWGQGTQVTVSS | low polyreactivity
9 | QVQLVESGGGLVQAGGSLRLSCAASGITLVGNAMGWYRQAPGKERELVADINWSDDSTYYADSVKGRFTISRDNAKNTVYLQMNSLKQEDTAVYYCAADVSWRLYNRSSEYDYWGQGTQVTVSS | low polyreactivity
10 | QVQLVESGGGLVQAGGSLRLSCAASGRIFKVYAMGWYRQAHGKEREMVAAITSRGGSTYYADSVKGRFTISRDNSKNTVYLQMNSLKPEDTAVYYCAAARGLPSNKYYYWGQGTQVTVSS | high polyreactivity
11 | QVQLVESGGGLVQAGGSLRLSCAASGRTFGIYAMGWYRQAPGKERELVAAISCGGGSTYYADSVKGRFTISRDNAKNTVYLQMNSLKPEYTAVYYCAAQAQWDGQMDYWGQGTQVTVSS | low polyreactivity
12 | QVQLVESGGGLVQAGGSLRLSCAASGRTFRWYAMGWYRQAPGKERELVAAITSGGGTYYADSVKGRFTIARDNAKNTVYLQMNSLKPEDTAVYYCNKLHRDRYDYWGQGTQVTVSS | high polyreactivity
13 | QVQLVESGGGLVQAGGSLRLSCAASGFTFRVYAMGRYRQAPGKERELVAVISGTGGRTYYADSVKGRFTISRDNAKNTVYLQMNSLKPEDTAVYYCARRGRPPAIYDYWGQGTQVTVSS | high polyreactivity
14 | QVQLVESGGGLVQAGGSLRLSCAASARIFPWNAMGWYRQAPGKERELVAAITSGGGTTYYADSVKGRFTISRDNAKNTVYLQMNSLKPEDTAVYYCATPWEGSSTADYRISVYYWGQGTQVTVSS | low polyreactivity
15 | QVQLVESGGGFVQAGGSLRLTCAASALTFQYNAMGWYRQAPGKETELVAAISRSGGRTYYADSVKGRFTISRDNAKNTVYLQMNSLKPEDTAVYYCARRGGVVYSSGYNYLGQGTQVTVSS | high polyreactivity
16 | QVQLVESGGGLDQAGGSLRLSCAASGSIFETYVMGWYRQAPGKERELVAAINSGGSTYYADSVKGRFTISRDNAKNTVYLQMNSLKPEDTAVYYFAADSPYGYYEGDYWGQGTQVTVSS | low polyreactivity
17 | QVQLVESGGGLVQAGGSLRISCDASGSTFVANAMRSYREAPGKERELLAAISRSGGRTYYADSVKGRFTISRDNAKYTVYFQMNSLKPEDTAVYYCAADGYRSPVYANWGMGYWGQGSQVTVSS | high polyreactivity
18 | QVQLVESGGGLVQAGGSLRLSCAASGSIFRQYAMGWYRQAPPKDRELVAAISSVGRTYYADSVKGRFTISRDNAKNTVYLQMNSLKPEDTAVYYCAARPYKFARYDYWGQGTQVTVSS | high polyreactivity
19 | QVQLVESGGGLVQAGGSLLLSCAASGSTFSYYGMGWYRQAPVKERELVAAIDYSGDSTYYADSVKGRFTISRDNSKNTVFLQMNSLKPEDTAVYYCAADDYPWNRYEYWGQGTQVTVSS | low polyreactivity
20 | QVQLVESAVGLVQAGGSLRLSSAASGFTFPLYAMGWYRQEHGKEREFVPVISRSGGSTYYADSVKGRFTISRDNAKNTVYLQMNSLKPEDTAVYYCAARLVPRSPERGNYDYWGQGTQVTVSS | high polyreactivity
21 | QVQLVESGGGLFQAGGSLRLSCAASGFIVRRYAMGWYRQAPGKEREMVAAITSGGGRTYYADSVKGRYTISRDNAKYTVNLEMISLKPEDTGVYDCARVQRCDYDYWGQGTQVTVSS | high polyreactivity
22 | QVQLVESGGGLVQAGGSLRLSCAASGSTFAYNTMGWYRKAPGKERELVAAITQLGGSTYADSVKGRFTISRDNAKNTVYLQINSLKPEENAVYYCAADGYTYKFDYWGQGTQVTVSS | low polyreactivity

Row | Sequence | polyreactivity (PSR sort gate)
23 | QVQLVESGGGLVQAGGSLRLSCAASGFTFFDYVMGWYRQAPGKERELVAAISSGGSTYYADSVKGRFTISRDNAKNTVYLQMNSLKPEDTAVYYCATDNGYPDDATDGYYSLYDYWGQGTQVTVSS | low polyreactivity
24 | QVQLVETGGGLVQAGGSLRVSCAASGSIFVGYPMGWYRQAPGKERELVAAISSNGGSTYYADSVKGRFTISRDNAKNTVYVQMNSLKPEDTAVYYCAAGVRRVYASGHGAYGYWGQGTQVTVSS | low polyreactivity
25 | QVQLVESGGGLVQAGGSLRLSCAASGSTFLQNAMGWYRQAPGKEREFVAAISYTGANTYYADSVKGRFTISRDNAKNTVYLQMNSLKPEDTAVYYCNRYAKQYLSGTVPVNLDYWGQGTQVTVSS | high polyreactivity
26 | QVQRVESGGGLVQEGGSLSLSCAASGSTYKNAMGWYRQAPGKERELVAAITWSGGTTYYADSVKGRFTISRDNAKNTVYLQINSLKPEDTAVYYCAAEYRWYSRYFNYWGQGTQVTVSS | high polyreactivity
27 | QVQLQETGGGLVQAGGSLRQSCAASRSISPWSYMGRYRQAPGKEREFVASINAGTNTYYADSAKGRITISRDNAKNTVYLQMNSLKPEDTAAYYCAARYWNDYYFPYWGQGTEVTVSS | low polyreactivity
28 | QVQLVESGGGLVQAGGSLRLSCAASGSIFYGNALGWYRQAPGKEREFVAAISSSGGSTYYADSVKGRFTISRDNAKNTVYLQMNSLKPEDTAVYYCAARGPKHTHSRRYFTEYDYWGQGTQVTVSS | low polyreactivity
29 | QVQLVESGGGLVQAGGSLRLSCAASGFIFGQYALGGYRQAPGKERELVAVITSSGGRTYYADSVKGRFTISRDNAKNTVYLQMNSLKPEDTAVYYCAAPGYGLQVRGRYGYWGQGTQVTVSS | high polyreactivity
30 | QVQLVESGGGLVQAGGSLRLSCAASGSTFNAYAMGWYRQAPGKERELVAVISSSGGRTYYADSVKGSFTISRDNAKNTVYLQMNSLKPEDTAVYYCNADVKYRYNHWGQGTQVTLSS | high polyreactivity
31 | QVQLVESGGGLVQAGGSLRLSCAASGRIFYLNVMGWYRQAPGKERELVAAITRRDVTTYADSVKGRFTISRDNAKNTVYLQMNSLKPEDTAVYYCNAVYYNWIGFDYSGQGTQVTVSS | low polyreactivity
32 | QVQLVESGGGLVQAGGSLRLSCDASGSTFPSYTMGWSRQAPGKERELVAVIRLSSGSTYYADSVKGRFTISRDNAKNTVYLQMNSLKPEDTAVYYCNTGRYHYFPNYWYDYWGQGTQVTVSS | low polyreactivity
33 | QVQLVESGGGLVQAGGSLRLSCAASGRTFVVYGMGWYRQAPGKERELVATITSGGSTDYADSVKGRFTIARDNAKNTVYLQMNSLKPEDTAVYYCAKETSYTNDDDYWGQGTQVTVSS | low polyreactivity
34 | QVQLVESGGGLVQAGGSLRLSCAASGSIFSVYAMGWYRQAPGKERELVATITWSGGRTYYADSVKGRFTISRDNAKNTVYLQMNSLKPEDTAVYYCAATSWWATTGFDYWGQGTQVTVSS | low polyreactivity
35 | QVQLVESGGGLDQAGGSLRLSCAASGRIFRYYTMGWYRQAPGKERELVAAISTSDDSTNYADSVKGRFTISRDNAKNTVYLQMNSLKPEDTAVYYCAADQSRVGSYQDYDYWGQGTQVTVSS | low polyreactivity
36 | QVQLVESGGGLVQAGGSLRLSCAASGSTFNIYTMGWYRQAPGKERELVARITFSGGSTYYADSVKGRFTISRDNAKNTVYLQMNSLKPEDTAVYYCAVRVYRVDHFGYDYWGQGTQVTVSS | high polyreactivity
37 | QVQLVESGGGLVQAGGSLRLSCAASGSTISYYAMGWYRQAPGKERELVAAITRSGGSTYYADSVKGRFTISRDNAKNTFYLQMNSLKPEDTAVYYCAKGWRYFVGWGQRSRYYFWGQGTQVTVSS | high polyreactivity
38 | QVQLVDSGGGLVQAGGSLRLICAASGLIFYKYAMGWYRQAPGKERELVASISTGGGSTYYADSVKGRFTISRDNAKNTVYLQMNSLQPEDTAVYYCAARWWRRFRGSHSLYDYWGQGTEVTVSS | high polyreactivity
39 | QVQLVESGRGLVQAGGSLRLSCAASGGTFRTYAMAWYRQAPGKERELVAAISVSGGRTYYADSVKGRFTISRDNAKNTVYLQMNSLKPEDTAVYYCAAYWHGFFKYWEMGYWGQGTQVTVSS | high polyreactivity
40 | QVHHVESGGGLVQAGGSLRLSCAASGFIIPYYAMGWYRPAPGKERELVAAISWSGSNTYYADSVKGRFTISRDNAKNTVYLQMNSLKPEDTAVYYCAARYSVYYFVQRNGRYGYWGQGTQVTVSS | high polyreactivity
41 | QVQLVESGGGLVQAGGSLRLSCAASGSTFKYYAMGWYRQAPGKEMELVAAIRGGGSTNYADSVTGPFTISRDNAKNTVYLQMNSLKPEDTAVYYCAARYGWYRGYNYWGQGTQVTVSS | high polyreactivity
42 | QVQLVESGGGLVQAGGSLRLSCAASGRIFRTYAMGWYRQAPGKERELVAAIRSGGSTKYADSVKGRFTISRDNAKNTVYLQMNSLKPEDTAVYYCAAAVLGRYSAGDGYWGQGTQVTVSS | low polyreactivity
43 | QVQLVESGGGLVQAGGSLRLSCAASGFIFLPYVMGWYRQAPGKERELVAAISGGGGITYYADSVKGRFTISRDNAKNTVYLQMNSLKPEDTAVYYCAADDLHWLNSKRYSGRDYWGQGTQVTVSS | low polyreactivity
